How the values were obtained:
α4β1 integrin = molecular target: T1, α4β1 integrin (Homo sapiens, UniProt P05556+P13612); experiment: adhesion of Jurkat cells to VCAM-1; format: cell-based; details: α4β1, VCAM-1
T1 construct: endogenous in cells; host or cells: Jurkat cells
Method: Adhesive ligands for the selected integrins consisted of collagen IV (0.2 μg/well), collagen I, fibronectin, or vascular cell adhesion molecule-1 (VCAM-1). Adhesive ligands in 0.02 M acetic acid were immobilized overnight at 4° C. on a 96-well plate. Plates were then blocked with 1% (w/v) BSA (bovine serum albumin) in Hank's Balanced Salt Solution (HBSS) containing 3 mM Mg^2+ at room temperature for 1-2 hours to prevent cells from non-specifically binding to the plates. α1K562, α2K562, K562, A5, and Jurkat cells expressing the α1β1, α2β1, α5β1, αIIbβ3, and α4β1 integrins respectively were labeled by incubation with 12.5 μM 5-chloromethylfluorescein diacetate (CMFDA) in HBSS for 15 minutes at 37° C. CMFDA labeled cells were then pelleted, washed and resuspended in HBSS buffer containing 3 mM Mg^2+ and 1% (w/v) BSA. […] Plates were then incubated at 37° C. for 30 minutes as indicated in Table 5 and washed three times with HBSS containing 3 mM Mg^2+ and 1% (w/v) BSA to remove unbound cells. Bound cells were lysed using 0.5% (v/v) Triton X-100 in H2O. Fluorescent CMFDA released by lysis of adherent cells in a given well was read using a Cytofluor 2350 fluorescence plate reader.
The effect of obtustatin, viperisrastatin, echistatin, and eristostatin on the binding of selected integrins to their adhesive ligands was evaluated using the cell adhesion assay described in Example 6. The integrin-expressing cells, integrins and corresponding adhesive ligands, and the results of the cell adhesion assay are shown in Table 6.

MV3 human melanoma cells = experiment: MV3 melanoma cell migration through HUVEC layer; format: cell-based; details: 3 hours
Method: Cell migration through an endothelial cell layer is an important event in cancer cell metastasis. The effect of obtustatin on melanoma cell migration through an endothelial cell layer in vitro was evaluated as follows. Human umbilical vein endothelial cells (HUVECs) of 3-7 passages were purchased from Cascade Biologics (Portland, Oreg.). The HUVECs were seeded into 8.0 μm pore size FALCON® HTS FluoroBlok™ inserts (Becton Dickinson, Franklin Lakes, N.J.) in serum-containing endothelial cell growth medium. The inserts were placed into the wells of a 24-well plate (Becton-Dickinson), and the HUVECs allowed to grow to confluence on the insert over 72 hours. The interior of the FluoroBlok™ inserts is referred to below as the “upper chamber,” and the interior of the well in which the insert sits is referred to as the “lower chamber.”
Twenty-four hours before the assay, the upper chambers were washed with serum-free medium, and new medium containing TNF-α (3 ng/ml) was added to activate the HUVECs. […] After 3 hours incubation at 37° C. in 5% CO2, the extent of MV3 migration into the bottom chambers was assessed using a bottom-reading Cytofluor 2350 (Millipore Inc., Bedford Mass.). The amount of fluorescence in the lower chambers is directly related to the number of MV3 cells which have migrated through the HUVEC layer from the upper chamber. […]

α1β1 and α2β1 integrins = experiment: adhesion of unblocked MV3 cells to immobilized collagen IV; format: cell-based, human
Method: (§1) The α1β1 integrin specific inhibitory effect of obtustatin was confirmed using human melanoma MV3 cells. MV3 cells express both the α1β1 and α2β1 integrins. MV3 cells adhere strongly to collagen IV through α1β1 and α2β1 integrin-mediated interactions.
Collagen IV (0.2 μg/well) in 0.02 M acetic acid was immobilized overnight at 4° C. on a 96-well plate. Plates were then blocked with 1% (w/v) BSA (bovine serum albumin) in Hank's Balanced Salt Solution (HBSS) containing 3 mM Mg^2+ at room temperature for 1-2 hours to prevent cells from non-specifically binding to the plates. […] were labeled by incubation with 12.5 μM 5-chloromethylfluorescein diacetete (CMFDA) in HBSS for 15 minutes at 37° C. CMFDA labeled MV3 cells were then pelleted, washed and resuspended in HBSS buffer containing 3mM Mg^2+ and 1% (w/v) BSA. 1×10^5 cells were then added to each well in the presence (10 μg/ml) or absence of the α1 integrin subunit specific AJH10 mAb and α2 integrin subunit specific P1E6 mAb as indicated in FIG. 5. Obtustatin was added at the concentrations indicated in FIG. 5 simultaneously with the mAbs. The plates were then incubated at 37° C. for 30 minutes and washed three times with HBSS containing 3 mM Mg^2+ and 1% (w/v) BSA to remove unbound cells. […] Fluorescent CMFDA released by lysis of adherent cells in a given well was read using a Cytofluor 2350 fluorescence plate reader. […]

α1β1 integrin = molecular target: T2, α1β1 integrin (Homo sapiens, UniProt P05556+P56199); experiment: adhesion of P1E6 blocked MV3 cells to immobilized collagen IV; format: cell-based; details: only α1β1 mediates adhesion
T2 construct: expressed in transfected cells; host or cells: α1K562 cells
T2 sequence (P56199 29-1179): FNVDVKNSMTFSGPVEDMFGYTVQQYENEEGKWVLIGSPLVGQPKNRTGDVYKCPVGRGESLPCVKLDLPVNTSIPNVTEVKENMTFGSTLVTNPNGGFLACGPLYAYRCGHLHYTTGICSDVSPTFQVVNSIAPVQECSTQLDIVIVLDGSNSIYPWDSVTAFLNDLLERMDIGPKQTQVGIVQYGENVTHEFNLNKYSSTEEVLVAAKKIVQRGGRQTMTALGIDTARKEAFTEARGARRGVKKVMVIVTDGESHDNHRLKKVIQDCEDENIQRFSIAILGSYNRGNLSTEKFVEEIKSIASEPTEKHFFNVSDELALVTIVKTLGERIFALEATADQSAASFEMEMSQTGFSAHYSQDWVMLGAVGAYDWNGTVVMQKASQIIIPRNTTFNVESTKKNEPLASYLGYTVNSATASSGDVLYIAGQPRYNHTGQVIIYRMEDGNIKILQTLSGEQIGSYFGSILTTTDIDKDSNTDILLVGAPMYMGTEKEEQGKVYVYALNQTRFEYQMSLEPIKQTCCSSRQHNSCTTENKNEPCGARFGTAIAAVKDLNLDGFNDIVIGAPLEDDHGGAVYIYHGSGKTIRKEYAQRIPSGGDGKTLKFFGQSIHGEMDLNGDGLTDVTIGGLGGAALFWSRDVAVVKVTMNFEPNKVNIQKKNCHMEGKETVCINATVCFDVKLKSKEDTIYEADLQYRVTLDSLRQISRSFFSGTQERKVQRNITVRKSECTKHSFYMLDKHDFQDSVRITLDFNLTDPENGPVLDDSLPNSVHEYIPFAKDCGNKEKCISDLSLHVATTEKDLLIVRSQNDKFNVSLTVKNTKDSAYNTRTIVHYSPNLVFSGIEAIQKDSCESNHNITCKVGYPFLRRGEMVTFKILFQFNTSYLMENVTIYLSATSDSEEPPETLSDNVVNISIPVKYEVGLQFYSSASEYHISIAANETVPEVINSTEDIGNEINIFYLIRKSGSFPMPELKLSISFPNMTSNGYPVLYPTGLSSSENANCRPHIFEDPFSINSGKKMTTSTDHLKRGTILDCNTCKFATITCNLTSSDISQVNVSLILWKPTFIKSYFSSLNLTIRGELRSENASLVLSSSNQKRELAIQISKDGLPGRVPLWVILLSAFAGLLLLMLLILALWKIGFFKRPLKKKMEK
T2 sequence (P05556 21-798): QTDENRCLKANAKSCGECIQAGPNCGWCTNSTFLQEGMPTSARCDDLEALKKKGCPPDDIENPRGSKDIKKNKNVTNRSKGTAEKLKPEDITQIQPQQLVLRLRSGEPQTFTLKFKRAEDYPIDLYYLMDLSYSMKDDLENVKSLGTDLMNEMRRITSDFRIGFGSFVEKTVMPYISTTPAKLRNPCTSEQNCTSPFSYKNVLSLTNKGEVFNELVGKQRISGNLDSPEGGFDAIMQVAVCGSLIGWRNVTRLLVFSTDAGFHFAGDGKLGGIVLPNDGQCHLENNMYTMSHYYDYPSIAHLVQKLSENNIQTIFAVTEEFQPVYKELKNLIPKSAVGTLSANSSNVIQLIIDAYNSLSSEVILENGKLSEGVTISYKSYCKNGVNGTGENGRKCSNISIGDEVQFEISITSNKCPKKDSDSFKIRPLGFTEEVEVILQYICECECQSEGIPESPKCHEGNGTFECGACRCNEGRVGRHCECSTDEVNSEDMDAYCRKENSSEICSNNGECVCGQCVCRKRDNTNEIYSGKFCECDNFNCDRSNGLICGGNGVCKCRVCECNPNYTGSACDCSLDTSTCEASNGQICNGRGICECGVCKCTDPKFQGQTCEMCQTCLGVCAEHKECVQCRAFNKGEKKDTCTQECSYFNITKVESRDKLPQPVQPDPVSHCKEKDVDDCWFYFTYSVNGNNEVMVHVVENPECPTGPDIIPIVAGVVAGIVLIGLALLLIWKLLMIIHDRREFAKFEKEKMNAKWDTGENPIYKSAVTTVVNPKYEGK
Method: as §1
Collagen IV (0.2 μg/well) in 0.02 M acetic acid was immobilized overnight at 4° C. on a 96-well plate. Plates were then blocked with 1% (w/v) BSA (bovine serum albumin) in Hank's Balanced Salt Solution (HBSS) containing 3 mM Mg^2+ at room temperature for 1-2 hours to prevent cells from non-specifically binding to the plates. α1K562 cells were labeled by incubation with 12.5 μM 5-chloromethylfluorescein diacetete (CMFDA) in HBSS for 15 minutes at 37° C. CMFDA labeled MV3 cells were then pelleted, washed and resuspended in HBSS buffer containing 3mM Mg^2+ and 1% (w/v) BSA. 1×10^5 cells were then added to each well in the presence (10 μg/ml) or absence of the α1 integrin subunit specific AJH10 mAb and α2 integrin subunit specific P1E6 mAb as indicated in FIG. 5. Obtustatin was added at the concentrations indicated in FIG. 5 simultaneously with the mAbs. The plates were then incubated at 37° C. for 30 minutes and washed three times with HBSS containing 3 mM Mg^2+ and 1% (w/v) BSA to remove unbound cells. […] Fluorescent CMFDA released by lysis of adherent cells in a given well was read using a Cytofluor 2350 fluorescence plate reader.

α9β1 integrin = molecular target: T3, α9β1 integrin (Homo sapiens, UniProt P05556+Q13797); experiment: adhesion of SW480α9 cells to VCAM-1; format: cell-based; details: α9β1, VCAM-1
T3 construct: expressed in transfected cells; host or cells: SW480α9 cells
T3 sequence (Q13797 30-1035): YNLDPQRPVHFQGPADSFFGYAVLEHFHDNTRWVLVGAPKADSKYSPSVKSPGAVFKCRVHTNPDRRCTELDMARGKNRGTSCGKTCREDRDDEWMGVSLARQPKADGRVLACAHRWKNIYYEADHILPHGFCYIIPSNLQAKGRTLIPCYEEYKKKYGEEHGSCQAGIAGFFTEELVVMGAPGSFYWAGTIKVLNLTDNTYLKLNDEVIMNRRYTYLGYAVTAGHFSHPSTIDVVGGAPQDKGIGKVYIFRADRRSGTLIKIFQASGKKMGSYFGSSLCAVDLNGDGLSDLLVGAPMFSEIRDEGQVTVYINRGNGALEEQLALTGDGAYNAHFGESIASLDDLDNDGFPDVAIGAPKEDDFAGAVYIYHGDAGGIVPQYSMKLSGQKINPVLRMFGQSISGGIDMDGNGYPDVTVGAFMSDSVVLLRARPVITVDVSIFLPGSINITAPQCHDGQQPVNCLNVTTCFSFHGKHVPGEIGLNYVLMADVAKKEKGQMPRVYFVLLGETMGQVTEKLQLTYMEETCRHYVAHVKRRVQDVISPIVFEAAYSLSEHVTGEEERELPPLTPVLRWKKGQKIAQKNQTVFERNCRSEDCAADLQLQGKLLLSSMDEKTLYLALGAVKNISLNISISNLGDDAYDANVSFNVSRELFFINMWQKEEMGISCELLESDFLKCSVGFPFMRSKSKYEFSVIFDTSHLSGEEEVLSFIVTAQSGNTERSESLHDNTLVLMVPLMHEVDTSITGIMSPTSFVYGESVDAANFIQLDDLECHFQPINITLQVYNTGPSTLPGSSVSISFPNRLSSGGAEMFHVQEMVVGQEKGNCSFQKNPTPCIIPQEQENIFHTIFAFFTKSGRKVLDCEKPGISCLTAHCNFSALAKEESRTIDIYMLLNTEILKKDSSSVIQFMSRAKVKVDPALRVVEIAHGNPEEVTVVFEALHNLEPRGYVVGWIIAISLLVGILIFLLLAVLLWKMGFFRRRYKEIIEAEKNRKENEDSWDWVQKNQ
T3 sequence (P05556 21-798): as the sequence (P05556 21-798) above

Obtustatin (CTTGPCCRQCKLKPAGTTCWKTSLTSHYCTGKSCDCPLYPG)
IC50 (α4β1 integrin): > 10 µM
migration of MV3 cells through the HUVEC layer (MV3 human melanoma cells; collagen IV or FGF as chemoattractants, 0 to 500 nM): inhibited migration
concentration giving essentially complete inhibition of MV3 cell migration (MV3 human melanoma cells; through HUVEC layer): above 200 nM
inhibition of adhesion of MV3 cells to collagen IV (α1β1 and α2β1 integrins): comparatively insensitive
inhibition of adhesion of MV3 cells to collagen IV (α1β1 integrin): inhibited by significantly lower obtustatin concentrations
IC50 (α9β1 integrin): > 10 µM
